In US8404647B2, “Peptidylarginine deiminase (PAD) inhibitors” (Chiralix B.V., priority 2008, dated 2013):
Marks after values point to notes of the source that are not given here. Ends that are not written are not given here.

What was measured:
PAD2 = PAD2 (Homo sapiens, UniProt Q9Y2J8); test: Conversion (R to Cit) of substrate peptides by PAD2, mass spectrometry; type: biochemical; conditions: for Conversion (%): Table 9, PAD2; for Conversion by PAD2 (%): Table 10
Procedure: In a similar fashion as for PAD4 we identified improved peptide substrates for PAD2. Again L1 was used as a lead compound. The set of 152 peptides from Table 3 was used and testing was performed as described before.
(§1) Conversion of arginine into citrulline in the substrate peptides by PAD2 or PAD4 using mass spectrometry was performed as follows. A candidate substrate peptide was incubated with a PAD as indicated for several hours at 37° C. The reaction was quenched by the addition with acetic acid. A sample was analysed on a Qtof mass spectrometer (Micromass, UK) and the mass spectrum was compared with that of the same peptide not treated with PAD. Normally, 2^+- and 3^+-ions are detected. The conversion (ΔM=0.98 Da) was calculated on the 2^+- and 3^+-ions individually, and subsequently averaged taking into account the relative peak height of the 2^+- and 3^+-signals (see FIG. 5).

PAD4 = PAD4 (Homo sapiens, UniProt Q9UM07); test: Conversion (R to Cit) of substrate peptides by PAD4, mass spectrometry; type: biochemical; conditions: for Conversion by PAD4 (%): Table 10; for Conversion (%): PAD4; for Conversion: Table 7, PAD4, test system with 3 times less enzyme
Text: From previous studies it was known that D-S-Q-F-A-F-R-G-A-S-A-S-D (designated here as L1: SEQ ID NO: 11) is a substrate for PAD2 and PAD 4. To obtain better substrates, and subsequently powerful inhibitors, we intended to identify structural elements that improve substrate properties. A set of 152 individual analog peptides was generated, each differing from L1 by one amino acid at one of the positions −4 to −1 or 1 to 4.
In Table 3 the conversion of each analog (R to Cit conversion) is depicted. Values of the analogs relate to the conversion of the analog compared to the conversion of L1 under standard conditions (100 means a conversion equal to L1, 50 means conversion of 50% of that of L1, 175 means conversion of 175% of that of L1). Numbers above 100 thus relate to amino acid substitutions that improve substrate properties.
Peptides of table 4 are represented by the following sequences SEQ ID NO: 22-31 and 33-46. Control peptide are represented by the following sequences SEQ ID NO: 11 as control L1 and SEQ ID NO: 32 as control L2. Unfortunately, a substantial number of designed peptides were too polar to be analyzed on our LC-MS system (indicated in Table 4 as n.t., not trapped on the column). We therefore also generated and tested these peptides containing two additional N-terminal F-residues to increase hydrophobicity. In this form peptides were trapped on the column and could be analyzed (see Table 5).
Based on the above results we designed 20 peptides containing multiple amino acids that improve substrate properties (see Table 7). The indicated peptides were synthesized and tested in order to identify the best substrate from this group. Here we used a test system with less enzyme (3 times less) compared to the experiments described above.
as §1

[1] = Table 5, peptides with two additional N-terminal F-residues

Sequence of PAD2 (Q9Y2J8 whole entry): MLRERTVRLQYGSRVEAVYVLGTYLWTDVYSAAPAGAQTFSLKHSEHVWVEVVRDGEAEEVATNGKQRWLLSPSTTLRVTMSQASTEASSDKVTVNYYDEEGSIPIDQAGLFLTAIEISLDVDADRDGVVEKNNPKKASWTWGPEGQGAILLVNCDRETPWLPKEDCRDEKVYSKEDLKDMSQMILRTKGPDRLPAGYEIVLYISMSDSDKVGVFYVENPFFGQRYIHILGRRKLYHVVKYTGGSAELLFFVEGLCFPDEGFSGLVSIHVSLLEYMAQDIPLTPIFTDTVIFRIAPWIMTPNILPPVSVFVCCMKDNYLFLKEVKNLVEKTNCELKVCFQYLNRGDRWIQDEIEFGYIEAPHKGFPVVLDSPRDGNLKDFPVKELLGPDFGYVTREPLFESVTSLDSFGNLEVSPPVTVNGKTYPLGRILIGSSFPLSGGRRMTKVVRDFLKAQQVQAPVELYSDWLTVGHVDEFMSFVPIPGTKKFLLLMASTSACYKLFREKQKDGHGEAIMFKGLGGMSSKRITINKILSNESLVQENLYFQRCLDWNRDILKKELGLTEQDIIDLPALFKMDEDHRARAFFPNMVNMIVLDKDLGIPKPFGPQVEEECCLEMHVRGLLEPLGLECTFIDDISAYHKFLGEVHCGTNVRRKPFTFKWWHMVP
Sequence of PAD4 (Q9UM07 whole entry): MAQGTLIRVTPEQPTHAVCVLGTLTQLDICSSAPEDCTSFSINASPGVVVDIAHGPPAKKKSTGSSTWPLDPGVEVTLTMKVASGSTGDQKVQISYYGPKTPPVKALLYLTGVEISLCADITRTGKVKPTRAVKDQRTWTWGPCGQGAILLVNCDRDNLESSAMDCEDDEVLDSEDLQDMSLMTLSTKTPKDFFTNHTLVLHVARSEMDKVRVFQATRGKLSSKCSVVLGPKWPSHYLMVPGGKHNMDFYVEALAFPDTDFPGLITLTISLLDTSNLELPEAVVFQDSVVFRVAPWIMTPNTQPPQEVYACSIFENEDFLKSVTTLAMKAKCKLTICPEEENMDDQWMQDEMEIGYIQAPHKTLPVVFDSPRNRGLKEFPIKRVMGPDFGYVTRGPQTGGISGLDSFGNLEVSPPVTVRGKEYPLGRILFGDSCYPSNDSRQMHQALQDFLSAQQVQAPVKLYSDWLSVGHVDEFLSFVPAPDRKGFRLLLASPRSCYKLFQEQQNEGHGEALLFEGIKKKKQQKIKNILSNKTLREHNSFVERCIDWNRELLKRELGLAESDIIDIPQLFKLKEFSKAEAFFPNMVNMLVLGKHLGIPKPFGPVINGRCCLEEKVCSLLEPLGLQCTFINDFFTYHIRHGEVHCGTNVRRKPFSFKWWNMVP

| Conversion (%) (PAD2) | Conversion by PAD2 (%) (PAD2) | Conversion by PAD4 (%) (PAD4) | Conversion (%) (PAD4; Table 4, 13-mer peptides) | Conversion (PAD4) | conversion of L2 analogs by PAD4 (PAD4; relative to conversion of L2 (L2 = 100), single substitution at positions -4 to 4) [%] | Conversion (%) (PAD4; [1]) | Substance |
| --- | --- | --- | --- | --- | --- | --- | --- |
| 91 | 91% | <20% | – | – | – | – | D-S-K-F-K-F-R-Y-A-Y-A-S-D (DSKFKFRYAYASD; not fully specified (C-terminus); printed as D-S-K-F-K-F-R-Y-A-Y-A-S-D) [Peptide 0735-34] |
| – | 90% | 77% | – | 51 | – | – | D-S-K-K-F-D-R-D-H-L-Y-S-D (DSKKFDRDHLYSD; not fully specified (C-terminus); printed as D-S-K-K-F-D-R-D-H-L-Y-S-D) [Peptide 0708-15] |
| – | 90% | 80% | – | 63 | – | – | D-S-K-K-F-D-R-G-H-L-Y-S-D (DSKKFDRGHLYSD; not fully specified (C-terminus); printed as D-S-K-K-F-D-R-G-H-L-Y-S-D) [Peptide 0708-30] |
| – | 97% | 64% | – | 56 | – | – | D-S-K-K-F-H-R-D-F-L-Y-S-D (DSKKFHRDFLYSD; not fully specified (C-terminus); printed as D-S-K-K-F-H-R-D-F-L-Y-S-D) [Peptide 0708-25] |
| – | 100% | 73% | – | 60 | – | – | D-S-K-K-F-H-R-G-F-L-Y-S-D (DSKKFHRGFLYSD; not fully specified (C-terminus); printed as D-S-K-K-F-H-R-G-F-L-Y-S-D) [Peptide 0708-33] |
| – | 97% | 35% | – | 23 | – | – | D-S-K-K-F-K-R-D-F-L-F-S-D (DSKKFKRDFLFSD; not fully specified (C-terminus); printed as D-S-K-K-F-K-R-D-F-L-F-S-D) [Peptide 0708-26] |
| – | 95% | 80% | – | 62 | – | – | D-S-K-K-H-D-R-D-H-L-W-S-D (DSKKHDRDHLWSD; not fully specified (C-terminus); printed as D-S-K-K-H-D-R-D-H-L-W-S-D) [Peptide 0708-20] |
| – | 92% | 37% | – | 43 | – | – | D-S-K-K-H-F-R-D-K-L-Y-S-D (DSKKHFRDKLYSD; not fully specified (C-terminus); printed as D-S-K-K-H-F-R-D-K-L-Y-S-D) [Peptide 0708-22] |
| – | 96% | 22% | – | 24 | – | – | D-S-K-K-H-F-R-G-K-L-Y-S-D (DSKKHFRGKLYSD; not fully specified (C-terminus); printed as D-S-K-K-H-F-R-G-K-L-Y-S-D) [Peptide 0708-32] |
| – | 92% | 76% | – | 61 | – | – | D-S-K-K-Y-D-R-D-F-L-W-S-D (DSKKYDRDFLWSD; not fully specified (C-terminus); printed as D-S-K-K-Y-D-R-D-F-L-W-S-D) [Peptide 0708-29] |
| – | 93% | 81% | – | 64 | – | – | D-S-K-K-Y-D-R-G-F-L-W-S-D (DSKKYDRGFLWSD; not fully specified (C-terminus); printed as D-S-K-K-Y-D-R-G-F-L-W-S-D) [Peptide 0708-34] |
| – | 90% | 71% | – | 60 | – | – | D-S-K-W-H-H-R-D-H-L-Y-S-D (DSKWHHRDHLYSD; not fully specified (C-terminus); printed as D-S-K-W-H-H-R-D-H-L-Y-S-D) [Peptide 0708-18] |
| – | 96% | 71% | – | 52 | – | – | D-S-K-W-H-H-R-G-H-L-Y-S-D (DSKWHHRGHLYSD) [Peptide 0708-31] |
| 98 | 98% | 45% | – | – | – | – | D-S-K-W-Y-H-R-N-K-F-W-S-D (DSKWYHRNKFWSD) [Peptide 0735-27] |
| 95 | 95% | <20% | – | – | – | – | D-S-Q-W-A-F-R-H-A-L-F-S-D (DSQWAFRHALFSD) [Peptide 0735-37] |
| – | 92 ** % | 91% | – | – | – | 100 | F-F-D-S-H-K-L-H-R-E-W-M-W-S-D (FFDSHKLHREWMWSD) [Peptide 0612-46] |

Further lines, the substance ahead of its results:

| Substance | Conversion (%) (PAD2) | Conversion by PAD2 (%) (PAD2) | Conversion by PAD4 (%) (PAD4) | Conversion (%) (PAD4; Table 4, 13-mer peptides) | Conversion (PAD4) | conversion of L2 analogs by PAD4 (PAD4; relative to conversion of L2 (L2 = 100), single substitution at positions -4 to 4) [%] | Conversion (%) (PAD4; [1]) |
| --- | --- | --- | --- | --- | --- | --- | --- |
| D-S-K-H-F-H-R-D-F-I-Y-S-D (DSKHFHRDFIYSD; not fully specified (C-terminus); printed as D-S-K-H-F-H-R-D-F-I-Y-S-D) [Peptide 0608-23] | – | 94% | 69% | – | – | – | – |
| D-S-K-H-K-S-R-D-F-V-Y-S-D (DSKHKSRDFVYSD; not fully specified (C-terminus); printed as D-S-K-H-K-S-R-D-F-V-Y-S-D) [Peptide 0608-27] | – | 94% | 69% | – | – | – | – |
| D-S-K-H-L-S-R-E-W-M-W-S-D (DSKHLSREWMWSD; not fully specified (C-terminus); printed as D-S-K-H-L-S-R-E-W-M-W-S-D) [Peptide 0608-24] | – | 95% | 54% | 90% | – | – | – |
| D-S-K-K-H-D-R-D-F-L-Y-S-D (DSKKHDRDFLYSD; not fully specified (C-terminus); printed as D-S-K-K-H-D-R-D-F-L-Y-S-D) [Peptide 0608-31] | – | 84(=L2) % | 58(=L2) % | 100% (=L2) | 45 (=L2) | 100 | – |
| D-S-K-K-K-H-R-E-W-V-W-S-D (DSKKKHREWVWSD; not fully specified (C-terminus); printed as D-S-K-K-K-H-R-E-W-V-W-S-D) [Peptide 0608-32] | – | 100% | 72% | – | – | – | – |
| D-S-K-K-L-H-R-D-H-M-E-S-D (DSKKLHRDHMESD; not fully specified (C-terminus); printed as D-S-K-K-L-H-R-D-H-M-E-S-D) [Peptide 0608-29] | – | 90% | 65% | – | – | – | – |
| F-F-D-S-H-K-F-D-R-D-F-I-Y-S-D (FFDSHKFDRDFIYSD) [Peptide 0612-45] | – | 97 ** % | 94% | – | – | – | 100 |
| F-F-D-S-H-K-H-S-R-E-W-L-W-S-D (FFDSHKHSREWLWSD) [Peptide 0612-38] | – | 96% | 72% | – | – | – | 100 |
| F-F-D-S-H-K-K-S-R-E-Y-V-F-S-D (FFDSHKKSREYVFSD) [Peptide 0612-44] | – | 100% | 58% | – | – | – | 100 |
| F-F-D-S-H-K-W-H-R-D-F-F-Y-S-D (FFDSHKWHRDFFYSD) [Peptide 0612-37] | – | 96 ** % | 88% | – | – | – | 100 |
| F-F-D-S-K-H-F-D-R-E-W-I-W-S-D (FFDSKHFDREWIWSD) [Peptide 0612-30] | – | 94 ** % | 89% | – | – | – | 100 |
| F-F-D-S-K-H-K-S-R-D-F-V-Y-S-D (FFDSKHKSRDFVYSD) [Peptide 0612-29] | – | 92% | 77% | – | – | – | 100 |
| F-F-D-S-K-H-L-S-R-E-W-M-W-S-D (FFDSKHLSREWMWSD) [Peptide 0612-26] | – | 97% | 73% | – | – | – | 100 |
| F-F-D-S-K-K-F-S-R-D-H-I-E-S-D (FFDSKKFSRDHIESD) [Peptide 0612-35] | – | 90% | 63% | – | – | – | 97 |
| F-F-D-S-K-K-K-H-R-E-W-V-W-S-D (FFDSKKKHREWVWSD) [Peptide 0612-34] | – | 99% | 76% | – | – | – | 100 |
| F-F-D-S-K-K-W-S-R-E-Y-F-F-S-D (FFDSKKWSREYFFSD) [Peptide 0612-32] | – | 94% | 76% | – | – | – | 100 |
